Assay results published in US8889621B2, “Inhibiting binding of FGF23 to the binary FGFR-Klotho complex for the treatment of hypophosphatemia” (New York University, priority 2009, dated 2014).
Entries after “also recorded” stand apart in the source; their conditions may differ. Read-outs that look alike come from different tables or passages of the source. Peptide text beside a SMILES is read from it.

Assays:
[1] = system: opossum kidney cell line OKP; format: cell-based; conditions: for effect on phosphate uptake when applied alone: 500 nM
Source text: The effects of FGF23 proteins/peptides on sodium-coupled phosphate uptake were studied in the opossum kidney cell line OKP (Miyauchi et al., “Stimulation of transient elevations in cytosolic Ca2+ is related to inhibition of Pi transport in OK cells,” Am J Physiol 259(3 Pt 2):[…]-493 (1990), which is hereby incorporated by reference in its entirety). The cell line has many characteristics of renal proximal tubule epithelium, including sodium gradient-dependent phosphate transport and sensitivity to parathyroid hormone (Miyauchi et al., “Stimulation of transient elevations in cytosolic Ca2+ is related to inhibition of Pi transport in OK cells,” Am J Physiol 259(3 Pt 2):[…]-493 (1990), which is hereby incorporated by reference in its entirety). OKP cells also express FGFR1-4 and Klotho (see next methods section). OKP cells were grown in culture as described previously (Hu et al., “Dopamine Acutely Stimulates Na+/H+ Exchanger (NHE3) Endocytosis Via Clathrin-coated Vesicles: Dependence on Protein Kinase A-mediated NHE3 Phosphorylation,” J Biol Chem 276(29):26906-26915 (2001), which is hereby incorporated by reference in its entirety). Cells grown in 24-well plates were stimulated for 4 h with FGF23^28-251 (0.5 to 1 nM), FGF23^180-251 (500 nM), FGF23^180-205 (500 nM), or mixtures of FGF23^28-251 (1 nM) with either FGF23^180-251 (1 to 500 nM) or FGF23^180-205 (1 to 500 nM). The 1 nM concentration of FGF23^28-251 was chosen for competition experiments with FGF23 C-terminal peptides because at this concentration, half-maximum inhibition of phosphate uptake is reached. After stimulation, the cells were rinsed with Na^+-free solution followed by 5 min incubation with uptake solution containing 100 μM KH2^32PO4 (2 mCi/ml, Perkin Elmer). The reaction was stopped by aspiration of uptake solution and washing cells with ice-cold stop solution (10 mM HEPES pH 7.4, 140 mM NaCl, 1 mM MgCl2). Each transport reaction was performed in triplicates.

[2] = system: Sprague-Dawley rats; assay: Plasma and urine phosphate in Sprague-Dawley rats after IV injection; format: in vivo, rat; conditions: IV 0.1 μg kg body weight^−1, 3 h, healthy rats
Source text: The anti-phosphaturic activity of FGF23 C-terminal peptides was examined in normal Sprague-Dawley rats and in Hyp mice, a mouse model of human X-linked hypophosphatemia (XLH) (Beck et al., “Pex/PEX Tissue Distribution and Evidence for a Deletion in the 3′ Region of the Pex Gene in X-linked Hypophosphatemic Mice,” J Clin Invest 99(6):1200-1209 (1997), Eicher et al., “Hypophosphatemia: Mouse Model for Human Familial Hypophosphatemic (Vitamin D-resistant) Rickets,” Proc Natl Acad Sci USA 73(12):4667-4671 […], Strom et al., “Pex Gene Deletions in Gy and Hyp Mice Provide Mouse Models for X-linked Hypophosphatemia,” Hum Mol Genet. 6(2):165-171 (1997), which are hereby incorporated by reference in their entirety). The animals were fed a complete, fixed formula diet containing 0.94% phosphate. Anesthetized rats (220-250 g body weight) were administered IV either FGF23^28-251 (0.1 μg kg body weight^−1) or FGF23^180-251 (0.1 μg kg body weight^−1) or vehicle. Before and 3 h after the injection, blood was drawn from the carotid artery and urine was collected through bladder catheterization. Plasma and urine chemistry of animals were analyzed using Vitros Chemistry Analyzer (Ortho-Clinical Diagnosis). 10- to 15-week old Hyp mice were fasted for 8-12 h before administering IP either FGF23^180-251 (1 mg) or FGF23^180-205 (860 μg) or vehicle. Before and 2 h, 4 h, 8 h, and 24 h after the injection, urine and serum samples were collected. Phosphate concentrations in urine and serum were determined using Phosphorus Liqui-UV Test (Stanbio Laboratory), and urine creatinine levels were measured using DetectX™ Urinary Creatinine Detection Kit (LuminosAssays).

| IC50 ([1]; 4 h) | IC50 ([1]; 4 h stimulation, read-out: concentration at which half-maximum inhibition of phosphate uptake is reached) | Molecule | effect on phosphate uptake when applied alone ([1]; 4 h) | antagonism of FGF23 inhibition of phosphate uptake ([1]; FGF23^28-251 1 nM, 4 h stimulation) | excretion rate and fractional excretion of phosphate [2] | plasma phosphate [2] |
| --- | --- | --- | --- | --- | --- | --- |
| 100 to 500 nM | – | CSCC[C@H](NC(=O)[C@H](CCCNC(=N)N)NC(=O)[C@H](C)NC(=O)[C@H](CCCNC(=N)N)NC(=O)[C@@H]1CCCN1C(=O)[C@H](CCCCN)NC(=O)[C@H](CC(C)C)NC(=O)[C@@H](NC(=O)[C@H](CC(N)=O)NC(=O)[C@H](CC(C)C)NC(=O)[C@@H]1CCCN1C(=O)[C@H](CC(=O)O)NC(=O)[C@H](CCCNC(=N)N)NC(=O)[C@H](CCC(=O)O)NC(=O)[C@H](CO)NC(=O)[C@H](CC(=O)O)NC(=O)[C@H](CC(=O)O)NC(=O)[C@H](CCC(=O)O)NC(=O)[C@H](C)NC(=O)[C@@H](N)CO)C(C)C)C(=O)N[C@H](C(=O)N1CCC[C@H]1C(=O)N[C@@H](C)C(=O)N1CCC[C@H]1C(=O)N[C@@H](C)C(=O)N[C@@H](CO)C(=O)O)[C@@H](C)O [FGF23^180-205] (H-SAEDDSERDPLNVLKPRARMTPAPAS-OH; N-terminus and C-terminus assumed) | neither of the two FGF23 C-terminal peptides altered phosphate uptake | similar, albeit less potent antagonistic effect | – | – |
| – | – | FGF23^180-251: 72-amino acid C-terminal tail of human FGF23 (S180 to I251), expressed in E. coli (protein, listed as Homo sapiens) SAEDDSERDPLNVLKPRARMTPAPASCSQELPSAEDNSPMASDPLGVVRGGRVNTHAGGTGPEGCRPFAKFI | neither of the two FGF23 C-terminal peptides altered phosphate uptake | – | renal phosphate retention; also recorded: decreased | induced hyperphosphatemia |
| – | 1 nM | FGF23^28-251: human FGF23 (A28 to I251), bioactive full-length ligand expressed in E. coli (protein, listed as Homo sapiens) ASPLLGSSWGGLIHLYTATARNSYHLQIHKNGHVDGAPHQTIYSALMIRSEDAGFVVITGVMSRRYLCMDFRGNIFGSHYFDPENCRFQHQTLENGYDVYHSPQYHFLVSLGRAKRAFLPGMNPPPYSQFLSRRNEIPLIHFNTPIPRRHTRSAEDDSERDPLNVLKPRARMTPAPASCSQELPSAEDNSPMASDPLGVVRGGRVNTHAGGTGPEGCRPFAKFI | – | – | increased | significant decrease; also recorded: induced hypophosphatemia |
